Publication doi:10.1101/701250

Target: APC-TMR (Mus musculus) (UniProt Q61315)
Assay: TIRF microscopy in vitro motility assay

stoichiometry N: 2
Substance: APC-TMR, Q61315 1-2845
